Results published in publication PMC2481302.

Target: human purified platelet factor 4/CXCL4 (human)
Experiment: cell attachment assay; αvβ3-CHO and mock-transfected CHO cells plated on microtiter wells coated with CXCL4 or CXCL4/CTF at the indicated concentrations; 60 min at 37°C in serum-free medium with 0.5% BSA; attached cells stained with Coomassie blue, absorbance at 620 nm; also with 0.25 mM Mn2+ or 2 mM Mg2+

increase of cell attachment with Mn2+ or Mg2+ against no added cation: 25%
Substance: human αvβ3 integrin on CHO cells (αvβ3-CHO, clone A06) (from UniProt P06756 31-1048; P05106 27-788) (receptor)
